Laboratory results: patent publication US20160152995A1, “METHODS AND COMPOSITIONS TO IMPROVE THE SPREAD OF CHEMICAL SIGNALS IN PLANTS” (PIONEER HI-BRED INTERNATIONAL, INC., priority 2013, published 2016)

System: E. coli assay strain Km3
Type: cell-based
Settings: library L8 hits, M9 Xgal colony assay; for IND = induction with 200 ppb Cs at 24 hrs (blue colony color intensity thru ImageJ analysis): 200 ppb Chlorsulfuron; for F. IND = fold induction: induction with 200 ppb Cs at 24 hrs/repression at 48 hrs: ratio IND (200 ppb Cs, 24 hrs) / REP (48 hrs)
Protocol: Library L6 was assembled, rescued, ligated into pVER7314, transformed into E. coli KM3 and plated out onto LB carbenicillin/kanamycin, and carbenicillin only control media as before. Library plates were then picked into 42 384-well microtiter plates (˜16,000 clones) containing 60 μl LB carbenicillin (Cb) broth per well. After overnight growth at 37° C. the cultures were stamped onto M9 assay plates containing no inducer, 0.2 ppm, and 2.0 ppm chlorsulfuron as test inducer. Following incubation at 30° C. for ˜48 hrs, putative hits responding to chlorsulfuron treatment as determined by increased blue colony color were re-arrayed into six 96-well microtiter plates and used to stamp a fresh set of M9 assay plates to confirm the above results. For a more detailed analysis of the relative induction by chlorsulfuron, digital photographs were taken of the plates after various time points of incubation at 30° C. and colony color intensity measured using the digital image analysis freeware program ImageJ (Rasband, US National Institutes of Health, Bethesda, Md., USA, rsb.info.nih.gov/ij/, 1997-2007). […] From this analysis sequence-activity relationships were derived. […] Briefly, C at position 100, and Q at positions 108 and 109 strongly correlated with activation, while R at position 138, L at position 170, and A or G at position 173 were highly preferred in clones with the lowest background activity. […] This information will aid in the design of further libraries to improve responsiveness to chlorsulfuron.
Library L8 construction and screening. Fourth round shuffling incorporated the best diversity from Rd3 shuffling (BB1860) as well as computational diversity (Table 14). As diversity was very high the library oligo mix was spiked into the parental hit variant oligo mix (5, 10, and 25% mixes) to titer down the number of residue changes per clone. In addition, to varying residues for Cs activity, seven residues (C68, C86, C88, C121, C144, C195, and C203) were varied with TetR family phylogenetic substitutions in an attempt to reduce the number of cysteine residues in the repressor. The PCR assembled libraries were cloned Sac1/Asc1 into pVER7334. This plasmid encodes PBAD promoter controlled expression of a plant optimized TetR DNA binding domain fused to the wt ligand binding domain of TetR(B) encoded by native Tn10 sequence on a Sac1 to Asc1 fragment. Approximately 15,000 clones were screened for blue colony color on the M9 Xgal assay plates +/−200 ppb Chlorsulfuron (Cs). Clones were ranked by ratio of color with inducer after 24 hrs incubation over colony color without inducer for 48 hrs of incubation. The sequence trend in the overall larger population of hits (first re-array) was that L55, R104, W105 and L170 were maintained while the C144A substitution was highly preferred. Sequence trends within the hit population were then noted with respect to repression, induction and fold induction (which corrects for leakiness).
Mutagenesis reactions were transformed into library strain Km3 and 96 colonies tested for substitution by DNA sequence analysis. Substitutions representing each possible residue at each position were then re-arrayed in triplicate onto M9 X-gal assay plates with 0, 20 and 200 ppb Chlorsulfuron. Plates were incubated at 37° C. for 24 and 48 hrs prior to imaging. Residue substitutions were then ranked by activation (emphasis on 20 ppb Cs) and repression characteristics (emphasis on 48 hr time point). The mutation with the greatest impact on activity was substitution of residue N82 to phenylalanine or tyrosine. […] All other preferred substitutions shown in Table 18 either improved repression or improved sensitivity to inducer without compromising repressor function. Certain residues were indispensible to function such as R104, W105, and W174 as substitutions were not allowed. Other residue positions such as R138 and K177 were also flagged as critical since functional substitutions were extremely limited. […]

Molecule	IND = induction with 200 ppb Cs at 24 hrs (blue colony color intensity thru ImageJ analysis)	F. IND = fold induction: induction with 200 ppb Cs at 24 hrs/repression at 48 hrs	REP = repression measured without inducer after 48 hrs (blue colony color intensity thru ImageJ analysis)
L8-3A04 (protein, Sulfonylurea responsive repressor) MARLDKSKVINSALELLNEVGIEGLTTRKLAQKLGVEQPTLYWHVKNKRALLDALAIEMMDRHQTHYSPLEGESWQDFLRNNAKSCRRALLSHRDGAKVCLGTRWTEQQYESAENMLAFLTQQGFSLENALYAVSAVRVFTLGAVLFDQESQVAKEERETPTTDSMPPLLRQAWELKDHQGAEPAFLFGLELIIRGLEKQLKRECGS	0.5	3.3	0.1
L8-1A05 (protein, Sulfonylurea responsive repressor) MARLDKSKVINSALELLNEVGIEGLTTRKLAQKLGVEQPTLYWHVKNKRALLDALAIEMMDRHQTHYSPLEGESWQDFLRNNAKSCRRALLSHRDGAKVCLGTRWTEQQYESAENMLAFLTQQGFSLENALYAVDAVRVFTLGAVLFDQESQVAKEERETPTTDSMPPLLRQAWELKDHQGAEPAFLFGLELIIAGLEKQLKAESGS	10.8	2.5	4.4
L8-3B03 (protein, Sulfonylurea responsive repressor) MARLDKSKVINSALELLNEVGIEGLTTRKLAQKLGVEQPTLYWHVKNKRALLDALAIEMMDRHQTHYLPLEGESWQDFLRNNAKSCRRALLSHRDGAKVCLGTRWTEQQYESAENMLAFLTQQGFSLENALYAVSAVRVFTLGAVLFDQESQVAKEERETPTTDSMPPLLRQAWELKDHQGAEPAFLFGLELIIRGLEKQLKSESGS	0.6	2.4	0.3
L8-3A07 (protein, Sulfonylurea responsive repressor) MARLDKSKVINSALELLNEVGIEGLTTRKLAQKLGVEQPTLYWHVKNKRALLDALAIEMMDRHQTHYSPLEGESWQDFLRNNAKSMRCALLSHRDGAKVCLGTRWTEQQYESAENMLAFLTQQGFSLENALYAVSAVRVFTLGWVLFDQESQVAKEERETPTTDSMPPLLRQAWELKDHQGAEPAFLFGLELIIAGLEKQLKRESGS	0.7	2.9	0.2
L8-1A03 (protein, Sulfonylurea responsive repressor) MARLDKSKVINSALELLNEVGIEGLTTRKLAQKLGVEQPTLYWHVKNKRALLDALAIEMMDRHQTHYSPLEGESWQDFLRNNAKSCRNALLSHRDGAKVCLGTRWTEQQYESAENMLAFLTQQGFSLENALYALDAVRVFTLGAVLFDQESQVAKEERETPTTDSMPPLLRQAWELKDHQGAEPAFLFGLELIIAGLEKQLKRESGS	8.6	3.1	2.8
L8-1E04 (protein, Sulfonylurea responsive repressor) MARLDKSKVINSALELLNEVGIEGLTTRKLAQKLGVEQPTLYWHVKNKRALLDALAIEMMDRHQTHYLPLEGESWQDFLRNNAKSCRNALLSHRDGAKVCLGTRWTEQQYESAENMLAFLTQQGFSLENALYAVSAVRVFTLGAVLYDQESQVAKEERETPTTDSMPPLLRQAWELKDHQGAEPAFLFGLELIIRGLEKQLKAESGS	1.5	2.5	0.6
L8-3F08 (protein, Sulfonylurea responsive repressor) MARLDKSKVINSALELLNEVGIEGLTTRKLAQKLGVEQPTLYWHVKNKRALLDALAIEMMDRHQTHYSPLEGESWQDFLRNNAKSCRNALLSHRDGAKVVLGTRWTEQQYESAENMLAFLTQQGFSLENAMYALEAARIFTLGWVLFDQESQVAKEERETPTTDSMPPLLRQAWELKDHQGAEPAFLFGLELIIRGLEKQLKSESGS	1.5	2.7	0.6
L8-3A06 (protein, Sulfonylurea responsive repressor) MARLDKSKVINSALELLNEVGIEGLTTRKLAQKLGVEQPTLYWHVKNKRALLDALAIEMMDRHQTHYLPLEGESWQDFLRNNAKSCRNALLSHRDGAKVCLGTRWTEQQYESAENMLAFLTQQGFSLENALYAVSAVRVFTLGAVLFDQESQVAKEERETPTTDSMPPLLRQAWELKDHQGAEPAFLFGLELIISGLEKQLKRESGS	0.3	2.6	0.1
L8-2H01 (protein, Sulfonylurea responsive repressor) MARLDKSKVINSALELLNEVGIEGLTTRKLAQKLGVEQPTLYWHVKNKRALLDALAIEMMDRHQTHYSPLEGESWQDFLRNNAKSCRRALLSHRDGAKVCLGTRWTEQQYESAENMLAFLTQQGFSLENALYALEAVRVFTLGAVLFDQESQVAKEERETPTTDSMPPLLRQAWELKDHQGAEPAFLFGLELIIRGLEKQLKRESGS	12.9	2.7	4.8
L8-1A06 (protein, Sulfonylurea responsive repressor) MARLDKSKVINSALELLNEVGIEGLTTRKLAQKLGVEQPTLYWHVKNKRALLDALAIEMMDRHQTHYSPLEGESWQDFLRNNAKSCRRAVLSHRDGAKVCLGTRWTEQQYESAENMLAFLTQQGFSLENALYAVSAVRVFTLGAVLFDQESQVAKEERETPTTDSMPPLLRQAWELKDHQGAEPAFLFGLELIIAGLEKQLKRESGS	2.1	2.7	0.8
